Assay results from publication PMC11952320.

Assays:
Assay in all cases: co-IP
[1] = target: human GABAA receptor β2 subunit, epilepsy-associated variant I299S (human) (UniProt P47870)
[2] = target: human GABAA receptor β2 subunit, epilepsy-associated variant R240T (human) (UniProt P47870)
[3] = target: human GABAA receptor β2 subunit, variant Q209F210delinsH (human) (UniProt P47870)
[4] = target: human GABAA receptor β2 subunit, epilepsy-associated variant I246T (human) (UniProt P47870)

- percent reduction of the ratio of α1 to β2 after co-IP, against WT [1]: 30%
- percent reduction of the ratio of α1 to β2 after co-IP, against WT [2]: 80%
- percent reduction of the ratio of α1 to β2 after co-IP, against WT [3]: 75%
- percent reduction of the ratio of α1 to β2 after co-IP, against WT [4]: 30%
Substance: human GABAA receptor α1 subunit (GABRA1)
